“And” between values parts separate entries of the source, which are not always exact repeats. Equal entries are not always repeated. One block for each binder: values may come before it.
Tests used:
[1] = biological target: T1, hCCR8 SNAP-tag (human, UniProt P51685 1-355, SNAP-tag labelled with Lumi4-Terbium); test: cell-based or functional assay
[2] = biological target: T2, human CCR8 (human, UniProt P51685 1-355); test: cell-based or functional assay
[3] = biological target: T2, human CCR8; test: cell-based or functional assay; remark: listed apart in the source
[4] = biological target: pm6, modified CCR8 related peptide (human, sulfated tyrosines at Y16 and Y17); test: ELISA on coated CCR8 peptide (500 ng/mL), OD [cont.]
Description: (§1) The specific binding properties of antibodies were evaluated by ELISA with coated CCR8 related peptides (500 ng/mL) in carbonate/bicarbonate buffer. Different peptides were used as described in Table 1 (see Example 1). Each anti-CCR8 mAb was tested at 1 μg/mL then diluted at 1/10. After an incubation at room temperature during 90 min, unbound mAbs were removed by washings. […] After washings, 3,3′,5,5′-tetramethylbenzidine (TMB) (Interchim, Montlugon, France) was added for 15 min. Then the optical density (OD) was determined by using a multiplate reader (Tecan, Lyon, France) and correlated with mAb reactivity on the panel of coated peptides.

[5] = biological target: pm1, modified CCR8 related peptide (human, sulfated tyrosine at Y15); test: as above
Description: as §1

[6] = biological target: pm5, modified CCR8 related peptide (human, sulfated tyrosines at Y15 and Y17); test: as above
Description: as §1

[7] = biological target: pm3, modified CCR8 related peptide (human, sulfated tyrosine at Y17); test: as above
Description: as §1

[8] = biological target: T3, pwt1, unmodified CCR8 related peptide (human, none (non-sulfated Y15, Y16, Y17)); test: as above
T3 construct: First 34 amino acids of human CCR8, synthetic; also called unmodified peptide
Description: as §1

[9] = biological target: pm2, modified CCR8 related peptide (human, sulfated tyrosine at Y16); test: as above
Description: as §1

[10] = biological target: pm4, modified CCR8 related peptide (human, sulfated tyrosines at Y15 and Y16); test: as above
Description: as §1

[11] = biological target: pm8, modified CCR8 related peptide (human, sulfated tyrosines at Y15, Y16 and Y17); test: as above
Description: as §1

[12] = biological target: T2, human CCR8; test: flow cytometry, hCCR8 transfected CHOK1 cells
Description: (§2) The same staining protocol was applied on human CCR8 transfected CHO cell line versus wild type CHO cell line, cutaneous T cell lymphoma HUT78 cell line and human activated T cell model.
(§3) Briefly, 1·10⁵ cells per well in a 96 well plate were incubated with a dilution of unconjugated anti-CCR8 mAb at 10 μg/mL then diluted at 1/3.33, 4 dilution points (during 30 min at 4° C.). In human activated T cells model, prior to mAb incubation, cells were first incubated with 200 nM of hCCL1 (R&D Systems, Minneapolis, MN, USA) or buffer PBS (Invitrogen by Thermofisher Scientific, Illkirch-Graffenstaden, France) supplemented by 2% Fetal Bovine Serum (Invitrogen by Thermofisher Scientific, Illkirch-Graffenstaden, France) and 2 mM EDTA (Invitrogen by Thermofisher Scientific, Illkirch-Graffenstaden, France) during 1 hour at 4° C. To determine EC50 value, 8 concentrations of anti-CCR8 mAb were tested. Unbound antibodies were washed away with PBS (Invitrogen by Thermofisher Scientific, Illkirch-Graffenstaden, France) supplemented by 2% Fetal Bovine Serum (Invitrogen by Thermofisher Scientific, Illkirch-Graffenstaden, France) and 2 mM EDTA (Invitrogen by Thermofisher Scientific, Illkirch-Graffenstaden, France). Subsequently, cells are centrifuged (5 min at 400 g) and bound antibody is detected with F(ab′)₂-Goat anti-Mouse IgG (H+L) Cross-Adsorbed Secondary Antibody, Alexa Fluor 488 (dilution 1/500) (Invitrogen by Thermofisher Scientific, Illkirch-Graffenstaden, France) or with F(ab′)₂-Goat anti-Human IgG Fc Secondary Antibody, PE (Invitrogen by Thermofisher Scientific, Illkirch-Graffenstaden, France) (dilution 1/1000) at 4° C. for 30 min. Detection reagent is washed away and cells are centrifuged (5 min at 400 g) and resuspended in 30 μL PBS. Bound detection antibody is quantified on a MacsQuant16 (Miltenyi, Gladbach, Germany) (B1 or B2 channel, 5000 events per acquisition). During the experiment, the respective isotype mAb controls (mouse IgG1, mouse IgG2a, mouse IgG2b, mouse IgG3 or human IgG1) (Biolegend, Amsterdam, The Netherlands) are included to exclude any unspecific binding events.

[13] = biological target: T2, human CCR8; test: flow cytometry, inhibition of hCCL1-AF647 binding to hCCR8 CHO cells
Description: The hCCR8 transfected CHO cell line was dispatched at a density of 1·10⁵ per well in a 96-well plate. Cells were incubated for 30 min at 4° C. with or without anti-CCR8 mAb tested at 10 μg/mL then diluted at 1/3. Unbound antibodies were washed away with PBS (Gibco, Villebon-sur-Yvette, France) supplemented by 2% Fetal Bovine Serum (Invitrogen by Thermofisher Scientific, Illkirch-Graffenstaden, France) and 2 mM EDTA. […] After washing unbound ligands, CCL1 bound detection is quantified on a MacsQuant16 (Miltenyi, Gladbach, Germany) (R1 channel, 5 000 events per acquisition).
For IC₅₀ determination, a concentration response curve is performed using 8 concentrations of mAb. Curves are fitted and IC₅₀ of CCL1 binding blocking activity is calculated using the sigmoidal dose-response (variable slope) model on GraphPad Prism 9 (GraphPad Software, San Diego, CA, USA).

[14] = biological target: T2, human CCR8; test: cell-based or functional assay; remark: listed apart in the source
[15] = biological target: T1, hCCR8 SNAP-tag; test: HTRF Tag-lite, inhibition of hCCL1-AF647 binding to SNAP-tag hCCR8 on HEK-293
Description: The inhibition of CCL1 binding to hCCR8 was evaluated with the Tag-Lite® technology from Cisbio (Revvity). Human CCR8 is engineered with a SNAP-tag at the N-terminus of the GPCR. hCCR8 SNAP-tag is transiently transfected on HEK-293 cell line using FuGene® (Promega, Madison, WI, USA). 48 hours after transfection, cells are labeled with the substrate Lumi4-Terbium® (Cisbio, Codolet, France) which covalently reacts with the SNAP-tag, for 1 h at 37° C. […] The Kd is previously obtained in a saturation binding assay on the same cells. […] The plate is next incubated at 21° C. for 2 h. Detection of HTRF signal is performed on the multiplate reader EnVision (PerkinElmer, Waltham, MA, USA). The HTRF (665/620) ratio is calculated by EnVision software, the data exported are considered as the total binding. The specific binding is calculated then by subtracting the non-specific signal from the total binding. The Ki and IC₅₀are calculated using the “One site—Fit Ki” and “One site—FitlogIC50” from GraphPad Prism 9 (Graphpad Software, San Diego, CA, USA), respectively.

[16] = biological target: T2, human CCR8; test: flow cytometry, HUT78 cells (endogenous CCR8)
Description: as §2, §3
EC50 values were determined via nonlinear fit “log(agonist)vs.response−Variable slope (four parameters)” function of Graphpad prism. EC50 values were not constantly determined in the same experiments.

T3 sequence (peptide, as listed by the source): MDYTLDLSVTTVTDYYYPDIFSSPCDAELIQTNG
Chain of pm6, modified CCR8 related peptide (human, sulfated tyrosines at Y16 and Y17) (peptide, as listed by the source): as above
Chain of pm3, modified CCR8 related peptide (human, sulfated tyrosine at Y17) (peptide, as listed by the source): as above
Chain of pm8, modified CCR8 related peptide (human, sulfated tyrosines at Y15, Y16 and Y17) (peptide, as listed by the source): as above
Chain of pm1, modified CCR8 related peptide (human, sulfated tyrosine at Y15) (peptide, as listed by the source): as above
Chain of pm5, modified CCR8 related peptide (human, sulfated tyrosines at Y15 and Y17) (peptide, as listed by the source): as above
Chain of pm4, modified CCR8 related peptide (human, sulfated tyrosines at Y15 and Y16) (peptide, as listed by the source): as above
Chain of pm2, modified CCR8 related peptide (human, sulfated tyrosine at Y16) (peptide, as listed by the source): as above

% of internalization at 1 µg/ml (CCL1 at 300 nM = 100%), HTRF [1]: 100%
% of internalization at 10 µg/ml (CCL1 at 300 nM = 100%), HTRF [1]: 90%
B1: Ref #3 (Anti-CCR8-1 of US 2021/0238292 A1) (antibody, human IgG1, V domains shown)
VH: QVQLVQSGAEVKKPGASVKVSCKASGYTFTSYYMHWVRQAPGQGLEWMGIINPSGGSTSYAQKFQGRVTMTRDTSTSTVYMELSSLRSEDTAVYYCARAVRNRFRFDYWGQGTLVTVSS
VL: QSALTQPASVSGSPGQSITISCTGTSSDVGSYNLVSWYQQHPGKAPKLMIYEVSKRPSGVSNRFSGSKSGNTASLTISGLQAEDEADYYCSSYAGSSTFVVFGGGTKLTVL

% of internalization at 1 µg/ml (CCL1 at 300 nM = 100%), HTRF [1]: 95%
% of internalization at 10 µg/ml (CCL1 at 300 nM = 100%), HTRF [1]: 103%
B2: Ref #4 (137-H3L2 (LM-108) of WO 2022/078277) (antibody, human IgG1, V domains shown)
VH: EVQLVESGGGLVQPGGSLKLSCAASGFTFNTYAMNWVRQASGKGLEWVARIRSKANNYATYYADSVKDRFTISRDDSKNTLYLQMNNLKTEDTAVYYCVRDRSRGEDYAMDYWGQGTLVTVSS
VL: DIVMTQSPLSLPVTPGEPASISCRSSKSLLHSNANTYLYWFLQKPGQSPQLLIYRMSNLASGVPDRFSGSGSGTAFTLKISRVEAEDVGVYYCMQHLEYPFTFGQGTKLEIK

IC50, CCL1 induced hCCR8 Gi2 signaling (BRET, HEK-293) [2]: 0.049 µg/mL and 0.328 nM
hCCL1 (100 nM) residual response in %, Protocol #2, mAb 0.08 µg/mL ([…] nM) [3]: 79%
hCCL1 (100 nM) residual response in %, Protocol #2, mAb 0.4 µg/mL (2.67 nM) [3]: 38%
hCCL1 (100 nM) residual response in %, Protocol #2, mAb 10 µg/mL (66.7 nM) [3]: 17%
hCCL1 (100 nM) residual response in %, Protocol #3, mAb 0.05 µg/mL (0.33 nM) [3]: 102%
hCCL1 (100 nM) residual response in %, Protocol #3, mAb 0.5 µg/mL (3.33 nM) [3]: 64%
hCCL1 (100 nM) residual response in %, Protocol #3, mAb 5 µg/mL (33.3 nM) [3]: 47%
binding result [4]: binds
binding result [5]: binds
binding result [6]: binds
binding result [7]: binds
binding result [8]: binds
binding result [9]: binds
binding result [10]: binds
binding result [11]: binds
% positive cells [12]: 81.1%
MFI fold change to isotype ctrl [12]: 10.7 fold
IC50 [13]: 1.3 µg/mL and 8.71 nM
IC50, CCL1 induced hCCR8 Gi2 signaling (BRET) at pH 6.5 [14]: 0.044 µg/ml and 0.292 nM
IC50, CCL1 induced hCCR8 Gi2 signaling (BRET) at pH 7.4 [14]: 0.061 µg/ml and 0.405 nM
B3: anti-CCR8 mAb 2-3 (antibody, V domains shown)
VH: EVQLQQSGPELLKPGTSVKISCTTSGYTFSDYTLHWVKQSHGKSLEWIGGITPKNGDTRYDPRFKDKATLTIDKSSSAAYMELRSLTSEDSAVYYCARVARFYGVSPYAMDYWGQGASVTVSS
VL: DVVMTQTPLSLPVSLGDQASISCRCTQSLLHSNGDTYLHWYLQKPGQSPKLLIYKVSNRFSGVPDRFSGSGSGTDFTLEITRVEAEDLGVYFCSQTTHVPYTFGGGTKLEIK

IC50, CCL1 induced hCCR8 Gi2 signaling (BRET, HEK-293) [2]: 0.101 µg/mL and 0.675 nM
IC50 [15]: 0.45 µg/mL
Ki [15]: 0.23 µg/mL
% positive cells [12]: 75.1%
% of internalization at 1 µg/ml (CCL1 at 300 nM = 100%), HTRF [1]: 126%
% of internalization at 10 µg/ml (CCL1 at 300 nM = 100%), HTRF [1]: 111%
IC50 [13]: 0.65 µg/mL
B4: Ref #1 (TPP-21360 of WO 2021/260210) (antibody, human IgG1, V domains shown)
VH: EVQLLESGGGLVQPGGSLRLSCAASGFTFSSYGMHWVRQAPGKGLEWVSAINWNGGSTGYADSVKGRFTISRDNSKNTLYLQMNSLRAEDTAVYYCARGHHSGYDGRFFDYWGQGTLVTVSS
VL: QSVLTQPPSVSGAPGQRVTISCTGSSSNIGAGYNVHWYQQLPGTAPKLLIYTNNRRPSGVPDRFSGSKSGTSASLAISGLRSEDEADYYCAAWDASLSGWVFGGGTKLTVL
notes: Benchmark; variable regions cloned into vectors encoding heavy and light chains of human IgG1, produced in CHO

IC50, CCL1 induced hCCR8 Gi2 signaling (BRET, HEK-293) [2]: 0.029 µg/mL and 0.194 nM
hCCL1 (100 nM) residual response in %, Protocol #2, mAb 0.08 µg/mL ([…] nM) [3]: 62%
hCCL1 (100 nM) residual response in %, Protocol #2, mAb 0.4 µg/mL (2.67 nM) [3]: 38%
hCCL1 (100 nM) residual response in %, Protocol #2, mAb 10 µg/mL (66.7 nM) [3]: 30%
hCCL1 (100 nM) residual response in %, Protocol #3, mAb 0.05 µg/mL (0.33 nM) [3]: 94%
hCCL1 (100 nM) residual response in %, Protocol #3, mAb 0.5 µg/mL (3.33 nM) [3]: 63%
hCCL1 (100 nM) residual response in %, Protocol #3, mAb 5 µg/mL (33.3 nM) [3]: 39%
% of labelled cells [16]: 23%
IC50 [15]: 0.09 µg/mL
Ki [15]: 0.05 µg/mL
binding result [4]: binds
binding result [5]: binds
binding result [6]: binds
binding result [7]: binds
binding result [8]: binds
binding result [9]: binds
binding result [10]: binds
binding result [11]: binds
B5: humanized anti-CCR8 mAb 2-12 (antibody, human IgG1, kappa)
heavy: not shown
light: DIVMTQAAPSLSVTPGESASISCTSSKSLLHSNGNTYLYWFLQKPGQSPQLLIYRMSNLASGVPDRFSGSGSGTAFTLKISRVEAEDVGVYYCMQHREYPFTFGSGTKLEIKRTVAAPSVFIFPPSDEQLKSGTASVVCLLNNFYPREAKVQWKVDNALQSGNSQESVTEQDSKDSTYSLSSTLTLSKADYEKHKVYACEVTHQGLSSPVTKSFNRGEC
notes: Humanized, human IgG1 / kappa, produced in CHO

Source: patent publication US20260167731A1 (DOMAIN THERAPEUTICS, published 2026)
